Laboratory results reported in publication PMC10294844, “Functional Diversity of Homologous Oxidoreductases—Tuning of Substrate Specificity by a FAD-Stacking Residue for Iron Acquisition and Flavodoxin Reduction” (Antioxidants, 2023).

Target: the molecule itself
Assay: crystal structure

B1: Bacillus cereus heme-degrading monooxygenase IsdG (enzyme)
chain: MIIVTNTAKITKGNGHKLIERFNKVGKVETMPGFLGLEVLLTQNTVDYDEVTISTRWNAKEDFQGWTKSAAFKDAHSHQGGMPEYILDNKIAYYDVKVVRMPMAAAQ
notes: also called Bc IsdG; IsdGapo
binding result: binds
